Measurements reported in patent publication US20200385427.

T1: Antp-PCP
T1 chain: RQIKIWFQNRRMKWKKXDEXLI

T2: R9-PCP
T2 chain: RRRRRRRRRXDEXLI

T3: cFΦR4-PCP (not fully specified)
T3 chain: FXRRRRQXDEXLI

T4: peptide 6 (Table 10)
T4 chain: RRRRXFDXXD

T5: peptide 7 (Table 10)
T5 chain: RRRRRRRRRDXXDX

B1: VHR (protein)
chain: MSGSFELSVQDLNDLLSDGSGCYSLPSQPCNEVTPRIYVGNASVAQDIPKLQKLGITHVLNAAEGRSFMHVNTNANFYKDSGITYLGIKANDTQEFNLSAYFERAADFIDQALAQKNGRVLVHCREGYSRSPTLVIAYLMMRQKMDVKSALSIVRQNREIGPNDGFLAQLCQLNDRLAKEGKLKP
B2: PTP1B (protein)
chain: MEMEKEFEQIDKSGSWAAIYQDIRHEASDFPCRVAKLPKNKNRNRYRDVSPFDHSRIKLHQEDNDYINASLIKMEEAQRSYILTQGPLPNTCGHFWEMVWEQKSRGVVMLNRVMEKGSLKCAQYWPQKEEKEMIFEDTNLKLTLISEDIKSYYTVRQLELENLTTQETREILHFHYTTWPDFGVPESPASFLNFLFKVRESGSLSPEHGPVVVHCSAGIGRSGTFCLADTCLLLMDKRKDPSSVDIKKVLLEMRKFRMGLIQTADQLRFSYLAVIEGAKFIMGDSSVQDQWKELSHEDLEPPPEHIPPPPRPPKRILEPHN
B3: SHP2 (protein)
chain: AETTDKVKQGFWEEFETLQQQECKLLYSRKEGQRQENKNKNRYKNILPFDHTRVVLHDGDPNEPVSDYINANIIMPEFETKCNNSKPKKSYIATQGCLQNTVNDFWRMVFQENSRVIVMTTKEVERGKSKCVKYWPDEYALKEYGVMRVRNVKESAAHDYTLRELKLSKVGQGNTERTVWQYHFRTWPDHGVPSDPGGVLDFLEEVHHKQESIMDAGPVVVHCSAGIGRTGTFIVIDILIDIIREKGVDCDIDVPKTIQMVRSQRSGMVQTEAQYRFIYMAVQHYIETLQRRI
B4: PTPRC (protein)
chain: YKIYDLHKKRSCNLDEQQELVERDDEKQLMNVEPIHADILLETYKRKIADEGRLFLAEFQSIPRVFSKFPIKEARKPFNQNKNRYVDILPYDYNRVELSEINGDAGSNYINASYIDGFKEPRKYIAAQGPRDETVDDFWRMIWEQKATVIVMVTRCEEGNRNKCAEYWPSMEEGTRAFGDVVVKINQHKRCPDYIIQKLNIVNKKEKATGREVTHIQFTSWPDHGVPEDPHLLLKLRRRVNAFSNFFSGPIVVHCSAGVGRTGTYIGIDAMLEGLEAENKVDVYGYVVKLRRQRCLMVQVEAQYILIHQALVEYNQFGETEVNLSELHPYLHNMKKRDPPSEPSPLEAEFQRLPSYRSWRTQHIGNQEENKSKNRNSNVIPYDYNRVPLKHELEMSKESEHDSDESSDDDSDSEEPSKYINASFIMSYWKPEVMIAAQGPLKETIGDFWQMIFQRKVKVIVMLTELKHGDQEICAQYWGEGKQTYGDIEVDLKDTDKSSTYTLRVFELRHSKRKDSRTVYQYQYTNWSVEQLPAEPKELISMIQVVKQKLPQKNSSEGNKHHKSTPLLIHCRDGSQQTGIFCALLNLLESAETEEVVDIFQVVKALRKARPGMVSTFEQYQFLYDVIASTYPAQNGQVKKNNHQEDKIEFDNEVDKVKQDANCVNPLGAPEKLPEAKEQAEGSEPTSGTEGPEHSVNGPASPALNQGS
B5: TCPTP (protein)
chain: MPTTIEREFEELDTQRRWQPLYLEIRNESHDYPHRVAKFPENRNRNRYRDVSPYDHSRVKLQNAENDYINASLVDIEEAQRSYILTQGPLPNTCCHFWLMVWQQKTKAVVMLNRIVEKESVKCAQYWPTDDQEMLFKETGFSVKLLSEDVKSYYTVHLLQLENINSGETRTISHFHYTTWPDFGVPESPASFLNFLFKVRESGSLNPDHGPAVIHCSAGIGRSGTFSLVDTCLVLMEKGDDINIKQVLLNMRKYRMGLIQTPDQLRFSYMAIIEGAKCIKGDSSIQKRWKELSKEDLSPAFDHSPNKIMTEKYN
B6: Caspase-3, Human, recombinant protein (protein)
chain: SGISLDNSYKMDYPEMGLCIIINNKNFHKSTGMTSRSGTDVDAANLRETFRNLKYEVRNKNDLTREEIVELMRDVSKEDHSKRSSFVCVLLSHGEEGIIFGTNGPVDLKKITNFFRGDRCRSLTGKPKLFIIQACRGTELDCGIETDSGVDDDMACHKIPVEADFLYAYSTAPGYYSWRNSKDGSWFIQSLCAMLKQYADKLEFMHILTRVNRKVATEFESFSFDATFHAKKQIPCIVSMLTKELYFYH

Molecular target: T1, Antp-PCP

Going from B1 to B2, the kcat/KM (dephosphorylation of pCAP peptide) rises from 2030 M⁻¹ s⁻¹ to 17400 M⁻¹ s⁻¹.

Compared with B3, B4 is higher in kcat/KM (dephosphorylation of pCAP peptide): 2210 M⁻¹ s⁻¹ for the first, 22300 M⁻¹ s⁻¹ for the second.

B5 showed a kcat/KM (dephosphorylation of pCAP peptide) of 970 M⁻¹ s⁻¹.

Molecular target: T2, R9-PCP

Compared with B1, B2 is higher in kcat/KM (dephosphorylation of pCAP peptide): 6240 M⁻¹ s⁻¹ for the first, 14700 M⁻¹ s⁻¹ for the second.

Compared with B3, B4 is higher in kcat/KM (dephosphorylation of pCAP peptide): 248 M⁻¹ s⁻¹ for the first, 2940 M⁻¹ s⁻¹ for the second.

For B5, the kcat/KM (dephosphorylation of pCAP peptide) was 457 M⁻¹ s⁻¹.

Molecular target: T3, cFΦR4-PCP

Going from B1 to B2, the kcat/KM (dephosphorylation of pCAP peptide) rises from 2460 M⁻¹ s⁻¹ to 37100 M⁻¹ s⁻¹.

Compared with B3, B4 is higher in kcat/KM (dephosphorylation of pCAP peptide): 7400 M⁻¹ s⁻¹ for the first, 35100 M⁻¹ s⁻¹ for the second.

B5 was tested, and the kcat/KM (dephosphorylation of pCAP peptide) was 2780 M⁻¹ s⁻¹.

Molecular target: T4, peptide 6 (Table 10)

With B6 the “decrease of substrate activity relative to peptide 3” value was “decreased its activity by 53% and 72%, respectively, relative to peptide 3”.

Molecular target: T5, peptide 7 (Table 10)

B6 was tested, and the “decrease of substrate activity relative to peptide 3” value was “decreased its activity by 53% and 72%, respectively, relative to peptide 3”.
